Measured values from article PMC9986795, “Structural basis of DNA binding by YdaT, a functional equivalent of the CII repressor in the cryptic prophage CP-933P from Escherichia coli O157:H7” (Acta Crystallographica. Section D, Structural Biology, 2023).

Molecular target: the molecule itself
Test: crystal structure; sitting drop, 0.1 M bis-Tris pH 5.5, 2.0 M ammonium sulfate, 19°C; free YdaT, a tetramer in the asymmetric unit, 2.4 Å

B1: YdaT from the cryptic prophage CP-933P of Escherichia coli O157:H7 (wild-type YdaT) (natural protein)
chain: KIKHEHIRMAMNVWAHPDGEKVPAAKITKAYFELGMTFPELYDDSHPEALARNTQKIFRWLDKDTPDAVEKMQALLPAIEKAMPPLLVARMRSHSSEYYREIVERRDRLVKDVDDFVASAVVLYDQMNRGGPAGNAVVMH
notes: YdaT, E. coli O157:H7 prophage CP-933P, open reading frame in pET-28b; also called CP-933P YdaT; full-length protein
stoichiometry N: 4
